Measurements reported in article PMC5282575, “The crystal structure of the Sgt1-Skp1 complex: the link between Hsp90 and both SCF E3 ubiquitin ligases and kinetochores” (Scientific Reports, 2017).

B2: full-length Sgt1 (untagged), Saccharomyces cerevisiae (natural protein, S. cerevisiae, UniProt Q08446 1-395, looked up)
chain: MPVEKDLKTAYKALYDEKEPLKALHLYDEILKGSPTNLTALIFKAACLEKLYFGFSDWHSDATMENAKELLDKALMTAEGRGDRSKIGLVNFRYFVHFFNIKDYELAQSYFKKAKNLGYVDDTLPLWEDRLETKLNKKNKKQKDSTNKHTIKPVESIENRGDNNSSHSPISPLKIETAPQESPKFKIDWYQSSTSVTISLFTVNLPESKEQVNIYISPNDRRTLSISYQVPKSGSEFQYNAKLSHEVDPKAVSLKIFPKKLEITLSKIDSTQWKKLEEDILTESSRLSDEGKNSDSATRLLSAETASKERLSYPSSSKKKIDWSKLDIDEEADEEAGSADSFFQKLYAGADPDTKRAMMKSFIESNGTALSTDWEDVSKGTVKTSPPEGMEPKHW
notes: Sgt1, S. cerevisiae, full length, untagged, cloned in MCSII of pColA-Duet; Dimer at working concentrations by SV-AUC and native MS, with minor monomer and trimer; also called Sgt1 FL; wt; source: E. coli BL21 Star (DE3), purified (cation exchange, gel filtration)

Legend:
[1] = target: full-length Sgt1 and Sgt1TPR (S. cerevisiae); test: ITC; VP-ITC, 25 °C, 20 mM HEPES pH 7.0, 150 mM NaCl, 1 mM β-mercaptoethanol; 130-160 μM Skp1 injected into 6-13 μM Sgt1 dimer; single site model assuming dimeric Sgt1
[2] = target: B2; test: as above; details: both partners purified
[3] = target: Skp1∆1 (Skp1 with residues 65-74 deleted) (S. cerevisiae, UniProt P52286 1-194, residues 65–74 are deleted); test: ITC
[4] = target: the molecule itself; test: AUC; sedimentation velocity, 20 °C, absorbance at 280 nm, continuous c(s) fit; Sgt1 at 4.5-22.3 μM monomer (His6-tagged WT and H59A at 11.2 μM)
[5] = target: the molecule itself; test: native MS; nano-electrospray, samples exchanged into 150 mM ammonium acetate pH 7; 4.5, 11.2 and 22.3 μM; spectra deconvoluted with Amphitrite

## full-length Skp1 (untagged), Saccharomyces cerevisiae (from UniProt P52286 1-194) (natural protein)
[1]
  Kd: 600 to 700 nM

B1: Skp1∆1 (Skp1 with residues 65-74 deleted) (natural protein, S. cerevisiae, UniProt P52286 1-194, looked up)
chain: MVTSNVVLVSGEGERFTVDKKIAERSLLLKNYLNDMHDSNLQNNSDSESDSDSETNHKSKDNNNIVMPVPNVRSSVLQKVIEWAEHHRDSNFPDEDDDDSRKSAPVDSWDREFLKVDQEMLYEIILAANYLNIKPLLDAGCKVVAEMIRGRSPEEIRRTFNIVNDFTPEEEAAIRRENEWAEDR
notes: Skp1, S. cerevisiae, in the context of the full-length protein; the LCR (36-64) is retained, residues 65-74 are deleted; also called Skp1Δ1; Skp1d1; source: E. coli, purified (anion exchange, gel filtration)
[2]
  binding result: binds

## B2
[3]
  Kd: 3900 nM
[4]
  stoichiometry N: 2

B3: His6-tagged full-length Sgt1 D61R (natural protein, S. cerevisiae, UniProt Q08446 1-395, looked up)
chain: MPVEKDLKTAYKALYDEKEPLKALHLYDEILKGSPTNLTALIFKAACLEKLYFGFSDWHSRATMENAKELLDKALMTAEGRGDRSKIGLVNFRYFVHFFNIKDYELAQSYFKKAKNLGYVDDTLPLWEDRLETKLNKKNKKQKDSTNKHTIKPVESIENRGDNNSSHSPISPLKIETAPQESPKFKIDWYQSSTSVTISLFTVNLPESKEQVNIYISPNDRRTLSISYQVPKSGSEFQYNAKLSHEVDPKAVSLKIFPKKLEITLSKIDSTQWKKLEEDILTESSRLSDEGKNSDSATRLLSAETASKERLSYPSSSKKKIDWSKLDIDEEADEEAGSADSFFQKLYAGADPDTKRAMMKSFIESNGTALSTDWEDVSKGTVKTSPPEGMEPKHW
notes: Sgt1, S. cerevisiae, full length, in pET28a, Asp61 to Arg; source: E. coli T7 Express LysY/Iq, purified (HisTrap FF, gel filtration); not shown: His6, N-terminal, kept
[5]
  stoichiometry N: 2

B4: Sgt1 TPR domain construct (Sgt1TPR, residues 1-150) (domain or fragment, S. cerevisiae, UniProt Q08446 1-150, looked up)
chain: MPVEKDLKTAYKALYDEKEPLKALHLYDEILKGSPTNLTALIFKAACLEKLYFGFSDWHSDATMENAKELLDKALMTAEGRGDRSKIGLVNFRYFVHFFNIKDYELAQSYFKKAKNLGYVDDTLPLWEDRLETKLNKKNKKQKDSTNKHT
notes: Sgt1, S. cerevisiae, TPR domain, residues 1-150, untagged, cloned in MCSII of pColA-Duet; Treated as a dimer in the ITC fit; forms concentration-dependent trimers; three copies in the asymmetric unit; SeMet-Sgt1TPR was used for the SAD data set; source: E. coli T7 Express LysY/Iq, purified (cation exchange, gel filtration)
[4]
  stoichiometry N: 3
